Laboratory results taken from the DeepSol protein solubility set.

Experiment: soluble on expression in E. coli; label from the status in PepcDB or PDB records

| Sequence | soluble on expression in E. coli |
| --- | --- |
| MNTKPKTIATSSTLELPKLHFQYDNTTTTFTEEEKLIDLKPTSEANYVKFWYNIVRNTYSQTHTNGSPVKPYLVANIERTIDTRLGEVFLHKKERSEHWASIAWFFNIDVKGKLVEKIIIRMSGIEELILNSGTTQIGENLNLISKSTRIPIEQNLTIDNPQLEVFYIMALWTISLDARAFKADLEDGINSESFSVEVFWKSKQDHNQTTISI | not soluble |
| MSLYISSALGPVDSGNKKEIEVEIPKGSSTSKIGEILEEKGAVKSGTVFSFYTKAKSKNLQAGTYLLNPSMSAKDVMEQMSSGNVHRPALYKVTIKEGAQVTEIAETVANELKWNKDDVVRQLNDKAFIQKMQQKYPKLLTDKIFDSNIKYPLEGYLYPATYSFYKKDTTLEEVVIPMLEKTNAIIVQNEAKMKAKNWDVHQLLTLSSLIEEEATGFTDRQKISSVFYNRLAKGMPLQTDPTVLYALGKHKQRVLYEDLKVNSPYNTYVVKGLPVGPIANSGKHSVEAALEPTQTDYYYFLAAPTGEVYYAKTLEEHNALKQKYITKKQEGHHHHHH | soluble |
| GSHMTGPVTKEDLGRATWTFLHTLAAQYPEKPTRQQKKDVKELMTILSRMYPCRECADHFKEILRSNPAQAGSQEEFSQWLCHVHNTVNRSLGKLVFPCERVDARWGKLECEQKSCDLHGTSMDF | soluble |
| MGSDKIHHHHHHMFVEACGRLVLIRKIYGLVKVFMVKKTIRYMRISLMLTNDAIFTTRLQKGGALLDDMRQLVCQWTEAVAKPESQAGEILHKATRSRVADTYRRAFLPRFLKGSPQDAWKLARALEEAHPSIEIIRPFYYWITARAEPILYAYVTEELVEKAKTSDRAVRTEETASWINNTLRSCGRVWSPTVQLKVARGILAALRDFAILEGAVNKRLVHGHLPIETFCLIAFLLNLMGIGARELVEHSDWKLFLLAGPEVERLFFEAHQHGWLHYQAAGRVHRIEFPTNDFKDYIRVIFGTES | not soluble |
| MPSKLFSRRSFVTTACAGLAALALPLPAVALTEARAASLVNEVVTEINRVIASGKSENAMIRDFEKLFVRYGDVPIMARYALGPDARTASPAQLKSFTQAFQGYISRKYGKRFREFIGGEVTVKTARKIKAGYEVKTSVKLQGQAPFDVTFLVSDKSGKDKFFNMFIEGVNLLLTERTEIGSMLDRRKGDLNALIRDLASAGLEHHHHHH | soluble |
| MGSDKIHHHHHHMQNPAIGNVADTTASDFAELPATASHGPLRIEYRWVNAAAGNAPIAVFLHEGLGSVTMWRDWPQALCERLGMRGLVYSRPGYGLSTPRPHDVKWPADFMTAQARDILPALLDALCIDMRERRRMWVIGHSDGGSITLLYAALYPEELAGAVAIAPHVFVEDISVESIAQTRQLYETTDLRSKLGRYHADVDSAFYGWNDIWLNPAFRQWSIAGELTSIRKPLLAVQGHDDNYGTMAQIDTIAAHVPHAQLVKLDACGHSPHRDAPQPLNKAIAAFVLKDGVA | not soluble |
| KYRSVFDIIGPVMIGPSSSHTAGAARIGRVARSLFGREPERIIVSFYGSFAETYKGHGTDVAIIGGLLDFDTFDERIKTAIQIAEAKGIDIEFRVEDAVPVHPNTAKITISDEKGELELTGISIGGGKIEITELNGFELRLSGNHPAILVVHNDKFGTIAGVANVLAKFSINVGHMEVARKDIGQLALMTIEVDQNIDDHILDELSKLPN | not soluble |
| MSLKLITNYQFLTYDGNYFHAEVIQSVLAECERAGIEIDTVLLDRDHQNDMEKFWDQIRSGAAEGVILVGVDMPPMLEVVRALGVPVVMVNGNDPNCQFDSVMPAFRDGSRIATRYLIEQGHRDIVHVTHLYRPLIRRRLDGFREALEEAGLPFSFERNVIDISSGHFSAEQAASVVAERIANGTLNATALFCVSDYTAFGVVQGILRSGKTVPGDYSVASFDDLPLAQLCRPALTSVGVDRRALGRIAVERLLSRLESVEGPTLRIEVGARLTIRDSTRPEGHHHHHH | soluble |
| SSVSGLKAELKFLASIFDKNHERFRIVSWKLDELHCQFLVPQQGSPHSLPPPLTLHCNITESYPSSSPIWFVDSEDPNLTSVLERLEDTKNNNLLRQQLKWLICELCSLYNLPKHLDVEMLDQPLPTGQNGTTEEVTSEEEEEEEEMAEDIEDLDHYEMKEEEPISGKKSEDEGIEKENLAILEKIRKTQRQDHLNGAVSGSVQASDRLMKELRDIYRSQSYKTGIYSVELINDSLYDWHVKLQKVDPDSPLHSDLQILKEKEGIEYILLNFSFKDNFPFDPPFVRVVLPVLSGGYVLGGGALCMELLTKQGWSSAYSIESVIMQINATLVKGKARVQFGANKNQYNLARAQQSYNSIVQIHEKNGWYTPPKEDG | not soluble |
| MKKLAAIISATLLFASSAAVAEVYVGGKVGKSWLDDACLAGQSCEDDDQVVGAFLGYQANKWLSLEAGYDYLGKFTAAGLNDEKVQAVTLAPKLSIPLTEGIALYGKVGGAYVDYGSKDDYSYLGAAGLEFNTNHNVTMRLEYQNLTDINNDIVRARAETATLGIAYKFGGSEEPAPVVEQRPAEPAPVAAPVEKVAVTKTFTFQHLDSSTFATASAELKPATVQKLDKIVGYLNQYPQAKVEVVGHTDSTGSEAYNQKLSERRAQAVAKALEAQGIDASRISAKGLGESSPIASNATAEGREKNRRVELVIPEFQYQVTE | not soluble |
| MEIGVVGKPNVGKSTFFSAATLVDVEIANYPFTTIEANVGVTYAITDHPCKELGCSPNPQNYEYRNGLALIPVKMVDVAGLVPGAHEGRGLGNKFLDDLRMASALIHVVDATGKTDPEGQPTDYHDPVEDIEFLEREIDYWIYGILSKGWDKFAKRIKLQKIKLESAIAEHLSGIGVNENDVWEAMHKLNLPEDPTKWSQDDLLAFASEIRRVNKPMVIAANKADAASDEQIKRLVREEEKRGYIVIPTSAAAELTLRKAAKAGFIEYIPGASEFKVLRDMSEKQKRALMVIKEKVLDRFGSTGVQEVINRVVFDLLKLIPVYPVHDENKLTDQFGNVLPHVFLMKKGSTPRDLAFKVHTDLGKGFLYAINARTKRRVGEDYELQFNDIVKIVSVTR | soluble |
| MKPLSGLKVLDLSRVLAGPLCTMILADLGAEVVKVEPPWGDETRGWGPPFVEGESAYFLAVNRGKRSVALDLKRPEGQEAVRRLAQKADVLVENFKTGDLRRFGLDYESLKPLNPRLIYLSITGFGHTGPRAKEPGYDAALQGYTGIMSVTGEPEGPPMKVGVAWIDVMTGMMGALAVLAALWERERSGLGQHIDLSLFDVGLFALANLGESFLLTGKPPKRLGNAHAQIVPYGAFPAEDGWLVLAVGNDEQFARLCQVVGLPDLARRFPTNALRVEHREEVVEALSRALKARSRAHWLERFKEAGVPAAPVNDLKEAFQDPQARARGAVWTLPHPLLGALPTLANPLRFLSRTPAGPGLPPPLLGEHTREVLLEAGYTPEAVADLVQRGIAKEAPPASQRRPDRGA | soluble |
| MRLSEAWAERKKNLSCQRGGHGAIITSITSFSEDFMTTMPAAEPVDAAERRAISPVVVYPNGTLEAPDLARLVQAKNGMEKIDEVIIPPRGGRTFTVPKGHFFRIVSIEGPQVGDLNLWNAHDLNERFFSGKTRALHATHVSVGNRLWSNLPSLRPMATITHDTLSWYGFDEDGGGVHDVIGTRCDPYTNKLLSGGDYHHCCHSNLTNALASARGLSFREAEPHVHDVLNVFMCTGFTRDTHQYFMKASPVRPGDYLELFAEIDLIGALSACPGGDCSATHSSDMAACYPLKVEIFRPDMAVLVGWPWPDRNAYRPVELEHHHHHH | not soluble |
| MSLASTEEETQAVMKVYSKEDYSVVNRFESHGGGWGYSAHSVEAIRFSADTDILLGGLGLFGGRGEYTAKIKLFELGPDGGDHETDGDLLAETDVLAYDCAAREKYAMMFDEPVLLQAGWWYVAWARVSGPSSDCGSHGQASITTDDGVIFQFKSSKKSNNGTDVNAGQIPQLLYRLPTSDGSTSKGKQQTSEPVHILKRSFARTVSVECFESLLSILHWSWTTLVLGVEELRGLKGFQFTATLLDLERLRFVGTCCLRLLRVYTCEIYPVSATGKAVVEETSKLAECIGKTRTLLRKILSEGVDHCMVKLDNDPQGYLSQPLRLLEAVLQECHNTFTACFHSFYPTPALQWACLCDLLNCLDQEANFKTSSSRLLAAVMSALCHTSVKLTSLFPIAYDGEVLLRSIVKQVSTENDSTLVHRFPLLVGHMEKLSQSEENISGMTSFREVLEKMLVIVVLPVRNSLRRESELFSSHLVSNTCGLLASIVSELTASALGSEVDGLNSLHSVKASANRFTKTSQGRSWNTGNGSPDAICFAVDKPGIVVVGFAVYGGGGIHEYELEVLVDDSEHAGDSTHSHRWTSLELVKGTYTTDDSPSDIAEIRLDKVVPLKENVKYAVRLRNYGSRTANGDGGMTTVQCPDGVTFTFSTCSLSSNGTNQTRGQIPQILYYRSEEGHHHHHH | soluble |
| MSEEDAEKLFLQEKPTRALLFIGSTGKTYASVISKEIDSTFAHTTRILSKMEQSGLIRFTFEGRIKFVELTKYGEEVEAALKDFRNIISEESPLRKEYLTAEEAGKVDKVRESEGKEYREHEEWEEENESEKDLDPLSAEILEKVRNLRNKIEGIYREAAETGQSKEMLSRKLGPNSRDIKKLYNQIENAETPVDETVVLALEETEGLLESYLKGSKPENV | not soluble |
| MSLGIGKEAEVKKSFEKTLSMYPIKNLEDLYDKEGYRDDQFDKNDKGTWIINSEMVIQPNNEDMVAKGMVLYMNRNTKTTNGYYYVDVTKDEDEGKPHDNEKRYPVKMVDNKIIPTKEIKDKNIKKEIENFKFFVQYGNFKDLSKYKDGDISYNPEVPSYSAKYQVTNDDYNVKQLRKRYDIPTNKAPKLLLKGTGNLKGSSVGYKDIEFTFVEKKGENIYFSDSLHLEPSEDKEGHHHHHH | soluble |
| MDYLTTNKIAWDARTRVHLTSDFYDVEGFLSGKISLTEIELNELAVAGKSLLHLQCHFGLDTLSWARMGAKVTGVDLSEVAIAEACKLAQQTQLSAEFICSDVYSVVGKVEPQDIVFTSYGAIVWLPDLTLWAQTIAACLKPGGQFYMAEFHPAQQLFDGYSYFNRGEPDIEQEGTYTENASDDQQTLMCWSHSLSEVINALLQAGLELVFFHEFAFSPYNCFEGLEAQADGRYVLIHQGQQVPLVYSISARKPVLEHHHHHH | soluble |
| MSLKIGIDVGSTTAKLVAVDENDNLLFSKYERHNAKAKETILSFLKELLSEIGDKDISVRITGSIGMGISEKCSLPFVQEVVAAAKAIQKDYSHVTSMIDIGGEDAKVVFFNDAEATDLRMNGNCAGGTGAFIDQMAIILGVNIDELNQLAMNATQVYPIASRCGVFCKTDIQNLIAKNVSRENIAASIFRAVAVQTVVTLAHGCDITTPVLFCGGPLTFIPALRKAFIDYLSLDEKEIILPANGTLLPALGAALFHLDKEDYCKLSHLIDKEGHHHHHH | soluble |
| MPAKERFFGFHPCKLVEQVEDCVRDLLEDALDGLETSLFRECALAFDALQENAVTSEHEHAKRLLLQQGLMRLRDALFTAFYDQMDRLQVYLLRNVFHIPPGLRIPNVNTSEDLVENWEQALGIDPSSVQIDANAEDEHAVDQELVALRQSLRVARQRLQRLCRERSVLEGAFHRLEGALQSRLASTLIPTEPEDPSGDCDALAKQVVTIARAVSELEAVVRSCRDQFLGDRSSAASGGAPPSGTVPAAAGGSDVGAQGALVRPPLELERIFDAHTKATRVDSLDAVDALRRALHRSC | not soluble |
| MAHHHHHHMPLCASIPATVDTDTNTRALYLDDLDKCMKNFSSALASTMNAYQNLLTAFDQVAQVYGNVAQECGDEVRKPVGEFRDGMRDLKDKGGFETFNHEIHVGTIAVIEPVKSDLKKALKSLKCLRLKQKEYDAVRYDLEQTEKSYAKKNKPLVTSSSYKKTLAKRDKVKTSYDASREAFGEEINALQATTKSVLLQSLNNYLHCTAAFCGQLEATMNGYRTDVDHHGSTTFTNDQMDKLKEKAEAESMARRAKRKSEASNPFQTGYDVTSNNSHRNLPSVDDGLYQKKDSLVDTESVNRYPNAEFAPPMQNGGDDNFTLREQYDDGAPGDADDVNPLVDANNDE | soluble |
